# Paper PMC4303269
# Target: histone octamer
substance,measurement,value
nucleosome assembly protein 1 (yNap1) (from UniProt P25293 1-417) (natural protein),"nucleosome formation fraction (package ratio, 15 min) of tethered 836-bp DNA in single-molecule TPM, 7.5 nM histone octamer pre-incubated with 15 nM yNap1, 150 mM NaCl (87.3 % without chaperone)",70.5%
